Experimental data: publication PMC3902928, “Nuclear ubiquitination by FBXL5 modulates Snail1 DNA binding and stability” (Nucleic Acids Research, 2013)

B1: GST-Snail1-HA (baculovirus) (natural protein, UniProt Q02085 1-264, looked up)
chain: MPRSFLVRKPSDPRRKPNYSELQDACVEFTFQQPYDQAHLLAAIPPPEVLNPAASLPTLIWDSLLVPQVRPVAWATLPLRESPKAVELTSLSDEDSGKSSQPPSPPSPAPSSFSSTSASSLEAEAFIAFPGLGQLPKQLARLSVAKDPQSRKIFNCKYCNKEYLSLGALKMHIRSHTLPCVCTTCGKAFSRPWLLQGHVRTHTGEKPFSCSHCNRAFADRSNLRAHLQTHSDVKRYQCQACARTFSRMSLLHKHQESGCSGGPR
notes: Snail1; insert subcloned from pcDNA3-Snail1-HA through pEBG-2T into pFastBac1; source: Sf9, baculovirus-infected, purified; not shown: GST, N-terminal, kept

Assays:
[1] = biological target: GST-FBXL5 (pGEX-6P-1) (UniProt Q9UKA1); experiment: pull-down; GST or GST-FBXL5 protein on glutathione-sepharose with extracts from transfected HEK293T cells; western blot
[2] = biological target: T1, 3xFlag-FBXL5 (baculovirus) (UniProt Q9UKA1 1-691); experiment: pull-down; 0.2 pmol 3xFlag-FBXL5 incubated with 2.5 pmol GST or GST-Snail1 as baits on glutathione-sepharose; western blot; settings: both partners purified
T1 construct: FBXL5; pFastBac1 3xFlag-FBXL5 provided by Dr Bruick; source: also co-infected with 6xHis-Skp1, HA-Cullin1 and Rbx1 for the SCF^FBXL5 complex; not shown: 3xFlag, N-terminal, kept
T1 sequence (looked up): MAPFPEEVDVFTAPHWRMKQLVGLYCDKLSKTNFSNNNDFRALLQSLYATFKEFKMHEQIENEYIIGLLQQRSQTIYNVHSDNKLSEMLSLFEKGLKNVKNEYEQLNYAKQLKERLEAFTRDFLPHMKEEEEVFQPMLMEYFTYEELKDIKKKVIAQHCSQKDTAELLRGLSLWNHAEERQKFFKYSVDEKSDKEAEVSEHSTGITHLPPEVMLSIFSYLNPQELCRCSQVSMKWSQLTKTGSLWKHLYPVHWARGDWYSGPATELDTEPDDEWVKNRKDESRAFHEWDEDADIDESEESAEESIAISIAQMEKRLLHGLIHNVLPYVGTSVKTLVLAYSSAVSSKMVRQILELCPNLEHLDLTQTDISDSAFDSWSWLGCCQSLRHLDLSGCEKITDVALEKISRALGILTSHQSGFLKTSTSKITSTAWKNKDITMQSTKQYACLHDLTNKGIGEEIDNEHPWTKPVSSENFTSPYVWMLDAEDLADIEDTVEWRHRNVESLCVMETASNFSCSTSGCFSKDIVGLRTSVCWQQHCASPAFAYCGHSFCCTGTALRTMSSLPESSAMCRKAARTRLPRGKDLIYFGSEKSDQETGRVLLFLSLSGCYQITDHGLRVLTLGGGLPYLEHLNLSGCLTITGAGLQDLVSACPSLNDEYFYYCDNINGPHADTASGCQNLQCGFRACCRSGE

Molecule | decrease of binding against the full C-terminal domain [1] | binding result [2]
GFP-Snail1CT ΔZnF1 (from UniProt Q02085 181-264) (domain or fragment) | 45% | –
GFP-Snail1CT ΔZnF1-2 (from UniProt Q02085 209-264) (domain or fragment) | 80% | –
GFP-Snail1CT ΔZnF3-4 (from UniProt Q02085 152-208) (domain or fragment) | > 50% | –
B1 | – | binds
